Laboratory results reported in the supplement of paper PMC10567573.

B1: PDZK1 (parent)
chain: FQAKKIPIVSSLADPLDTPPDSKE
B2: MYL5 (parent)
chain: DVAGNLDYKALSYVITHGEEKEE

Variants of: B1
Test: protein stability index of a GFP-peptide fusion (GPS, HEK-293T) (PSI 1-6); higher = more stable
Conditions: c terminus: a fixed tail appended
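Further: lentivirally expressed fusions sorted by FACS into six bins by GFP to DsRed ratio, PSI derived from sequencing read proportions per bin multiplied by bin number.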

Variant	protein stability index
FQAKKIPIVSVLADPLDTPPDSKE [S11V]	3.38
FQAKKIPIVSSLAKPLDTPPDSKE [D14K]	3.65
FQAKKIPIVSSLAEPLDTPPDSKE [D14E]	3.65
FQAKKIPIVSSLALPLDTPPDSKE [D14L]	3.5
FQAKKIPIVSSYADPLDTPPDSKE [L12Y]	3.75

Variants of: B2
Test: as above
Conditions: c terminus: native

Variant	protein stability index
DVAGNLDYKALSYEITHGEEKEE [V14E]	2.51
DVAGNLDYKALSYSITHGEEKEE [V14S]	2.31
DVAGNLDYKALSYFITHGEEKEE [V14F]	2.25
DVAGNLDYKALSYIITHGEEKEE [V14I]	3.02
DVAGNLDYKALSYMITHGEEKEE [V14M]	1.24
DVAGNLDYKALSYCITHGEEKEE [V14C]	2.07
DVAGNLDYKALSYTITHGEEKEE [V14T]	2.14
DVAGNLDYKALSYRITHGEEKEE [V14R]	1.31
DVAGNLDYKALSYPITHGEEKEE [V14P]	2.48
DVAGNLDYKALSYDITHGEEKEE [V14D]	2.97
DVAGNLDYKALSYKITHGEEKEE [V14K]	2.5
DVAGNLDYKALSYNITHGEEKEE [V14N]	3.53
DVAGNLDYKALSYGITHGEEKEE [V14G]	2.28
DVAGNLDYKALSYVITHREEKEE [G18R]	2.43
DVAGNLDYKALSYVITHEEEKEE [G18E]	2.1
DVAGNLDYKALSYVITHNEEKEE [G18N]	2.11
DVAGNLDYKALSYVITHDEEKEE [G18D]	2.61
DVAGNLDYKALSYVITHTEEKEE [G18T]	1.78
DVAGNLDYKALSYVITHLEEKEE [G18L]	1.69
DVAGNLDYKALSYVITHQEEKEE [G18Q]	1.94
DVAGNLDYKALSYVITHFEEKEE [G18F]	1.88
DVAGNLDYKALSYVITHAEEKEE [G18A]	1.45
DVAGNLDYKALSYVITHCEEKEE [G18C]	1.68

Variant	protein stability index
DVAGNLDYKALSYVITHSEEKEE [G18S]	1.49
DVAGNLDYKALSYVITHMEEKEE [G18M]	2.07
DVAGNLDYKALSYVITHHEEKEE [G18H]	1.7
DVAGNLDYKALSYVITHIEEKEE [G18I]	2.42
DVAGNLDYKALSYVITHPEEKEE [G18P]	1.12
DVAGNLDYKALSYVVTHGEEKEE [I15V]	2.59
DVAGNLDYKALSYVPTHGEEKEE [I15P]	2.16
DVAGNLDYKALSYVLTHGEEKEE [I15L]	1.89
DVAGNLDYKALSYVDTHGEEKEE [I15D]	2.31
DVAGNLDYKALSYVHTHGEEKEE [I15H]	3.3
DVAGNLDYKALSYVMTHGEEKEE [I15M]	1.82
DVAGNLDYKALSYVYTHGEEKEE [I15Y]	3.01
DVAGNLDYKALSYVTTHGEEKEE [I15T]	2.81
DVAGNLDYKALSYVGTHGEEKEE [I15G]	2.31
DVAGNLDYKALSYVRTHGEEKEE [I15R]	2.73
DVAGNLDYKALSYVATHGEEKEE [I15A]	2.1
DVAGNLDYKALSYVETHGEEKEE [I15E]	3.02
DVAGNLDYKALSYVCTHGEEKEE [I15C]	2.95
DVAGNLDYKALSYVQTHGEEKEE [I15Q]	2.17
DVAGNLDYKALSYVFTHGEEKEE [I15F]	2.49
DVAGNLDYKALSYVNTHGEEKEE [I15N]	2.63
DVAGNLDYKALSYVKTHGEEKEE [I15K]	2.19
DVAGNLDYKALSYVITHGDEKEE [E19D]	2.23

Variant	protein stability index
DVAGNLDYKALSYVITHGKEKEE [E19K]	3.27
DVAGNLDYKALSYVITHGNEKEE [E19N]	3.3
DVAGNLDYKALSYVITHGLEKEE [E19L]	2.9
DVAGNLDYKALSYVITHGMEKEE [E19M]	1.08
DVAGNLDYKALSYVITHGFEKEE [E19F]	3.04
DVAGNLDYKALSYVITHGTEKEE [E19T]	3.2
DVAGNLDYKALSYVITHGIEKEE [E19I]	2.19
DVAGNLDYKALSEVITHGEEKEE [Y13E]	2.9
DVAGNLDYKALSIVITHGEEKEE [Y13I]	2.14
DVAGNLDYKALSCVITHGEEKEE [Y13C]	2.63
DVAGNLDYKALSLVITHGEEKEE [Y13L]	2.01
DVAGNLDYKALSPVITHGEEKEE [Y13P]	3.39
DVAGNLDYKALSQVITHGEEKEE [Y13Q]	2.33
DVAGNLDYKALSKVITHGEEKEE [Y13K]	2.46
DVAGNLDYKALSVVITHGEEKEE [Y13V]	1.75
DVAGNLDYKALSAVITHGEEKEE [Y13A]	2.7
DVAGNLDYKALSMVITHGEEKEE [Y13M]	2.08
DVAGNLDYKALSSVITHGEEKEE [Y13S]	2.97
DVAGNLDYKALSHVITHGEEKEE [Y13H]	2.12
DVAGNLDYKALSFVITHGEEKEE [Y13F]	1.8
DVAGNLDYKALSYVITHGEEKEC [E23C]	4.24
DVAGNLDYKALSYVITHGEEKES [E23S]	3.81
DVAGNLDYKALSYVITHGEEKEA [E23A]	4.11

Variant	protein stability index
DVAGNLDYKALSYVITHGEEKEP [E23P]	2.26
DVAGNLDYKALSYVITHGEEKEY [E23Y]	3.97
DVAGNLDYKALSYVITHGEEKET [E23T]	4.54
DVAGNLDYKALSYVITHGEEKEM [E23M]	2.22
DVAGNLDYKALSYVITHGEEKEH [E23H]	2.67
DVAGNLDYKALSYVITHGEEKED [E23D]	4.94
DVAGNLDYKALSYVITHGEEKEQ [E23Q]	4.85
DVAGNLDYKALSYVITHGEEKEN [E23N]	4.99
DVAGNLDYKALSYVITHGEEKEF [E23F]	2.69
DVAGNLDYKALSYVITHGEEKEG [E23G]	4.37
DVAGNLDYKALSYVITHGEEKEV [E23V]	2.5
DVAGNLDYKALSYVITHGEEKEL [E23L]	2.42
DVAGNLDYKALSYVITHGEEKEK [E23K]	3.3
DVAGNLDYKALSYVITDGEEKEE [H17D]	2.89
DVAGNLDYKALSYVITPGEEKEE [H17P]	1.83
DVAGNLDYKALSYVITMGEEKEE [H17M]	1.64
DVAGNLDYKALSYVITEGEEKEE [H17E]	2.25
DVAGNLDYKALSYVITLGEEKEE [H17L]	2.23
DVAGNLDYKALSYVITGGEEKEE [H17G]	2.4
DVAGNLDYKALSYVITKGEEKEE [H17K]	1.79
DVAGNLDYKALSYVITCGEEKEE [H17C]	1.67
DVAGNLDYKALSYVITTGEEKEE [H17T]	2.12
DVAGNLDYKALSYVITQGEEKEE [H17Q]	1.96
